# Patent publication US20230322857A1, “RECOMBINANTLY ENGINEERED POLYPEPTIDES CAPABLE OF RECYCLING NONCANONICAL COFACTORS” (The Regents of the University of California, priority 2022, published 2023)
# Changes are numbered by the printed parent chain. Numbers in names are those of the source.
# B1: TS-PTDH A155N: Pseudomonas stutzeri phosphite dehydrogenase with A155N substitution (SEQ ID NO:3) (protein)
# chain: MLPKLVITHRVHEEILQLLAPHCELITNQTDSTLTREEILRRCRDAQAMMAFMPDRVDADFLQACPELRVIGCALKGFDNFDVDACTARGVWLTFVPDLLTVPTAELAIGLAVGLGRHLRAADAFVRSGKFRGWQPRFYGTGLDNATVGFLGMGNIGLAMADRLQGWGATLQYHEAKALDTQTEQRLGLRQVACSELFASSDFILLALPLNADTLHLVNAELLALVRPGALLVNPCRGSVVDEAAVLAALERGQLGGYAADVFEMEDWARADRPQQIDPALLAHPNTLFTPHIGSAVRAVRLEIERCAAQNILQALAGERPINAVNRLPKANPAAD
# B2: LY-7: phosphite dehydrogenase variant with A155N, E175W, A176G, L208V (SEQ ID NO:5) (protein)
# chain: B1 chain with E175W, A176G, L208V
# B3: LY-6: phosphite dehydrogenase variant with A155N, E175Q, A176S (SEQ ID NO:4) (protein)
# chain: B1 chain with E175Q, A176S
# B4: wild type Bs GDH: wild type Bacillus subtilis glucose dehydrogenase, reduces NAD(P)^+ but not NMN^+ (protein, UniProt P12310 1-261, looked up)
# Glucose 1-dehydrogenase: MYPDLKGKVVAITGAASGLGKAMAIRFGKEQAKVVINYYSNKQDPNEVKEEVIKAGGEAVVVQGDVTKEEDVKNIVQTAIKEFGTLDIMINNAGLENPVPSHEMPLKDWDKVIGTNLTGAFLGSREAIKYFVENDIKGNVINMSSVHEVIPWPLFVHYAASKGGIKLMTETLALEYAPKGIRVNNIGPGAINTPINAEKFADPKQKADVESMIPMGYIGEPEEIAAVAAWLASKEASYVTGITLFADGGMTQYPSFQAGRG
# Tests used:
# [1] = Steady-state kinetics of TS-PTDH variants with NADP^+; assay type: biochemical; conditions: 100 mM MOPS, pH 7.25, 10 mM sodium phosphite, varied cofactor concentrations; n = 3
# Experimental: (§1) Purification and Characterization of TS-PTDH Variants. The E. coli BL21(DE3) strains harboring pQElac plasmids encoding the TS-PTDH or TS-PTDH variants were grown in 2×YT media with kanamycin and ampicillin at 37° C. The IPTG-inducible expression, Ni-affinity purification, and protein concentration determination was conducted as described above.
# (§2) The steady-state kinetic parameters toward the coenzymes were measured by spiking purified protein into a 100 μL reaction mixture containing 100 mM MOPS, pH 7.25, 10 mM sodium Pt, and varied cofactor concentrations from 0.02 mM to 5 mM at 25° C. The kinetic parameters were measured by monitoring the […] of reduced coenzyme at 340 nm. Data were fitted to the Michaelis-Menten equation to generate estimates of KM and kcat values.
# [2] = Steady-state kinetics of TS-PTDH variants with NAD^+; assay type: biochemical; conditions: 100 mM MOPS, pH 7.25, 10 mM sodium phosphite, varied cofactor concentrations; n = 3
# Experimental: as §1, §2
# [3] = Steady-state kinetics of TS-PTDH variants with NMN^+; assay type: biochemical; conditions: for Km / NMN^+ kcat: 100 mM MOPS, pH 7.25, 10 mM sodium phosphite; for increased catalytic efficiency (kcat/Km) for NMN^+ compared to TS-PTDH A155N: vs parent enzyme TS-PTDH A155N
# Experimental: as §1, §2
# E. coli SHuffle strain [4] = assay: Recapitulation of growth restoration with TS-PTDH variants in SHuffle strain; assay type: cell-based, Escherichia coli; conditions: spotted onto agar selection plates
# Experimental: Selection of TS-PTDH Library. A total of 50 μL pre-made SHuffle/pLZ311 or SHuffle/pLZ312 electro-competent cells were transformed with 2 μL TS-PTDH A155N-E175-A176-L208 NNK library DNA (pLZ316) via electroporation as described above. After rescue in SOC media for 1 h, cultures were combined in 10 mL 2×YT with 10 g/L glucose, 0.5% arabinose, kanamycin and ampicillin. 0.2, or 1 μL of culture was immediately taken from the culture and plated on an 2×YT agar plates with kanamycin and ampicillin. The plate was incubated at 37° C. overnight, and the number of colonies formed was counted to estimate the library size. The liquid cultures were incubated at 37° C. with shaking for 10 h. Cells (1 mL) were washed 3 times and re-suspended in M9 Buffer. Targeted serial dilutions of cells were prepared in M9 buffer and 5 μL aliquots were dispensed in series on an agar plate of M9 selection media containing 0.5 mM diamide, 5 or 1 g/L yeast extract, 10 g/L glucose, 0.5% arabinose, 0.5 mM IPTG, 10 g/L sodium phosphite, kanamycin, ampicillin, and 5 mM NMN^+. Selection plates were incubated at 37° C., and photographs were taken to document growth progress. The independent transformants sampled was calculated as 2.4×10^6 and 2.5×10^6 colonies when plated on 5 and 1 g/L yeast extract, respectively. TS-PTDH and the template of the library, TS-PTDH A155N, were cultured in the same conditions as controls. The colonies were numbered by the order of appearance. The selected cells were re-streaked on fresh agar plate with identical media and incubated until single colonies formed on the plate. Variants that cannot forma single colony may be false positives. After extracting the plasmids from each re-streaked colony, the chosen TS-PTDH variants were amplified and moved into the pQElac vector containing a N-terminal 6×His tag for protein purification and characterization. […] 2 μL of a serial dilution of cells were deposited onto a growth selection plate and grown at 37° C.
# [5] = BNA(H)-mediated PTDH biotransformation with TsOYE; assay type: biochemical
# Experimental: BNA(H)-Mediated PTDH Biotransformation. Reactions with BNA^+, see FIG. 10D, contained 100 mM MOPS-NaOH at pH 7.6, 10 mM KIP, 100 mM sodium phosphite, and 2% v/v DMSO. BNA^+Cl^−, prepared by refluxing equimolar amounts of nicotinamide and benzyl chloride in acetonitrile overnight, followed by precipitation with diethyl ether on ice was supplied to the reactions at final concentrations of 0, 5, 10, or 20 mM. Reactions were initiated by spiking TsOYE and the appropriate TS-PTDH variant to a final concentration of 10 μM, each. Reaction mixtures were incubated at 30° C. on a Thermomixer C (Eppendorf) with shaking at 900 rpm for 24 h, extracted with 500 μL ethyl acetate containing 5 mM n-dodecane, and analyzed by GC-FID. The cycling system with no BNA was used to determine the background activity of the cycling systems. This value was subtracted from the final levodione concentrations in the 5-, 10-, and 20-mM samples to determine the BNA(H)^− specific levodione production. Concentrations of levodione product were determined using a calibration line (0-10 mM, 6 levels, using n-dodecane as internal standard). The y-intercept of the calibration line was forced through 0.
# For BNA(H)-mediated reactions, gas chromatography analyses were performed on a GC-2010 (Shimadzu, Japan) equipped with an AOC-20i auto injector and a flame ionization detector (FID), using a CP-Sil 5 column (25 m×0.25 mm×[…]). 1 μL of sample was injected with a split ratio of 100:1 and injector at 340° C. The FID was maintained at 360° C. Nitrogen was used as the carrier gas, with a linear velocity of 30 cm/s. The oven was held at 135° C. for 1 min, ramped at 15° C./min to 215° C., then 30° C./min to 345° C., and held at 345° C. for 1 min.
# Expression and Purification of Proteins for BNA(H)-Mediated Biotransformation Reactions. E. coli BL21(DE3) strains were transformed with the plasmids containing the TS-PTDH variants and grown on LB-agar plates containing ampicillin at 37° C. overnight. An overnight culture, 15 mL LB supplemented with ampicillin, was inoculated with a single colony, and grown at 37° C., 170 rpm overnight. 2 L baffled shake-flasks with 250 mL of 2×YT media containing 200 μg/mL ampicillin, were inoculated with the overnight culture, grown at 37° C., 170 rpm until OD600 of ˜1.0, induced with IPTG (0.5 mM), and grown at 30° C. and 170 rpm for 24 h. Cells were harvested by centrifugation at 18,000×g, 4° C., 10 min and stored at −20° C. until purification.
# The pellet was resuspended in four volumes loading buffer (50 mM sodium phosphate, 300 mM sodium chloride, 10 mM imidazole, pH 7.7), and lysed on ice by sonication (Branson sonifier 250; 15 min total, 40% duty cycle, output control 3.5, 2 mm tip). The lysate was clarified (21,000×g, 4° C., 30 min followed by 0.2 μm filtration), and loaded (1 mL/min) onto a Nickel-HisTrap FF crude (1 mL) column, washed with loading buffer (12 column volumes, CV), followed by a step with 10% elution buffer (loading buffer containing 250 mM imidazole; 12 CV). The protein was then eluted with 100% elution buffer and collected in fractions of 0.5 mL. Fractions containing protein were combined and dialyzed against ice-cold dialysis buffer (50 mM sodium phosphate, pH 7.7, 800 mL); the buffer was renewed after the first 2 h of dialysis. Following the dialysis, the protein was mixed with glycerol (20% v/v final concentration). Enzyme concentrations were estimated by the absorbance at 280 nm (non-denatured protein), using predicted extinction coefficients (wild type and LY-13: 26470, LY-7: […]; web.expasy.org/protparam/). The protein was aliquoted, flash frozen in liquid nitrogen, and stored at −80° C. until use. […]
# E. coli SHuffle strain [6] = assay: GDH-Gor coupled growth rescue in SHuffle strain; assay type: cell-based, Escherichia coli; conditions: 0.5 mM diamide, NMN^+ 0, 2, 4 and 6 mM
# Experimental: Culture conditions for GDH-Gor coupled growth rescue in SHuffle strain. The electro-competent cells of SHuffle harboring pLZ311 or pLZ312 were made as follows: The SHuffle cells were cultured in 200 mL SOB media with spectinomycin at 30° C. with shaking until OD600 reached 0.4-0.6. The culture was chilled on ice for 15 min and the cells were pelleted at 4° C., 4,000×g. Collected cells were washed with 10% glycerol in water (sterile, ice cold) and resuspended with 5 mL of 10% glycerol in water (sterile, ice cold), and stored as 50 μL aliquots at −80° C.
# Glucose facilitator (encoded by glf) was used for uptake of unphosphorylated glucose into the cells. The co-transformation of Bs gdh and Zm glf was performed as follows: Thaw SHuffle/pLZ311 or SHuffle/pLZ312 electro-competent cells on ice, add 1 μL Bs gdh (pEK101 or pLZ210) and 1 μL Zm glf(pSM109) plasmid DNA to 50 μL competent cells, mix, and electroporate. Cells were recovered with 1 mL SOC at 37° C. with shaking for 1 h. The cells were added to 10 mL 2×YT with 10 g/L glucose, 0.5% arabinose, kanamycin, chloramphenicol, and ampicillin. After incubation at 37° C. with shaking for 10 h, 1 mL cells were washed 3 times and re-suspended in M9 buffer (1×BD Difco M9 Salts). Targeted dilutions after cells reached density of OD600 0.6 were prepared in M9 buffer and 5 μL aliquots were dispensed in series on an agar plate of M9 selection media containing 0.5 mM diamide, 1 g/L yeast extract, 10 g/L glucose, 0.5% arabinose, 0.5 mM IPTG, ampicillin, kanamycin, chloramphenicol and serial NMN concentrations of 0, 2, 4 and 6 mM. Selection plates were incubated at 37° C., and photos were taken to document growth progress.
# [7] = varied cofactor concentrations, n = 3
molecule,measurement,setting,value
B1,Km,[1],630 ± 70 µM
same,NADP^+ kcat,[1],0.88 ± 0.08 s⁻¹
same,Km,[2],80 ± 10 µM
same,NAD^+ kcat,[2],1.46 ± 0.13 s⁻¹
same,Km,[3]; enzyme could not be saturated,> 5000 µM
same,increase in catalytic efficiency for NMN^+ compared to TS-PTDH (wild type enzyme),[3]; vs TS-PTDH,~30 fold
same,"growth restoration, co-expression with NMNH-specific Gor Ortho",E. coli SHuffle strain [4],restored growth at a low level
B2,activity / cycling with BNA^+ compared to wild type,[5],enhanced activity for BNA^+ reduction
same,response of biotransformation efficiency to BNA^+ concentration,"[5]; 0, 5, 10, or 20 mM BNA^+",cofactor dose-dependent response
same,utilization of the BNA^+ pool relative to the wild type protein,"[5]; 20 mM BNA^+ supplementation, TsOYE, 24 h",improved utilization of the BNA^+ pool
same,Km,[1],110 ± 10 µM
same,NADP^+ kcat,[1],0.56 ± 0.03 s⁻¹
same,Km,[2],750 ± 30 µM
same,NAD^+ kcat,[2],0.71 ± 0.04 s⁻¹
same,Km,[3]; [7],1400 ± 100 µM
same,NMN^+ kcat,[3]; [7],0.16 ± 0.01 s⁻¹
same,increased catalytic efficiency (kcat/Km) for NMN^+ compared to TS-PTDH A155N,[3],~11 fold
B3,Km,[1],50 ± 10 µM
same,NADP^+ kcat,[1],0.95 ± 0.05 s⁻¹
same,Km,[2],110 ± 10 µM
same,NAD^+ kcat,[2],1.04 ± 0.08 s⁻¹
same,Km,[3]; [7],1100 ± 100 µM
same,NMN^+ kcat,[3]; [7],0.18 ± 0.01 s⁻¹
same,increased catalytic efficiency (kcat/Km) for NMN^+ compared to TS-PTDH A155N,[3],~17 fold
B4,cell growth of SHuffle strain harboring Gor Ortho with the NMN^+-reducing enzyme,E. coli SHuffle strain [6],did not support cell growth
